Source: the DeepSol protein solubility set

Test: soluble on expression in E. coli; label from the status in PepcDB or PDB records
For “MTRSRRGALARSSEGGPFPTADPVADRALCGWRVRSVIDLPELPLWTRDDRLPDVTIAFGRVTPVESASPGMNWHVVGEGRFRFTVASVGSYRISRGRVITIDPQAGVVASAVRQYLLGTAFGVLCHQRGLLPLHASCVAINGRAVAIAGASGAGKSSLAAALVRLGYPLLGDDVCVIDASEINAPHVLPAIPRLKLWRDVLDTFGLIVDPAARILEGIDKYQAQALADRPPPPPPQVPLPLGVVYYLDQAESPDDEGFHAIRGAERAAALAGAVYRRKMGLAMGLLPQIFTATMTVGALVPGHRLLRHGDLSGLDALARSVAARQEGRGLEHHHHHH”, the “soluble on expression in E. coli” value was “not soluble”.
In the case of “MTRTPLTLEQLNALSDDAFTEHFAGVLEHSPHYARRAAAGRPFADVEEVAAAFARAVAADEPGAQVQLIRAHPDLAGKAALAGELTAESASEQTSAGLDRLSPEEYAEFQRLNAAYHERFGLPYVVCVRENTKDTIFEGARRRLTHTQEEEQAAALHEIGRIARLRILDLVQEGRQEKRMDGRLIRIPLEHHHHHH”, the “soluble on expression in E. coli” value was “soluble”.
For “MTSEKLSAACHCGSVVFTVQLSDGFHTARRCNCSFCRMRGAVAVSAPLSGIKVLKGQDKLTEYRFNTGKAVHFFCSVCGIYTFHQRRSNPDQYGVNVACIENVSPFDFACVEVNDGVTHPSDGGSSGVVGYLRYEPKKSPPVETGGKNILEHHHHHH”, the “soluble on expression in E. coli” value was “soluble”.
For “MTSGTSVINDKVLQYETFISEVLRRDLQKVLEQRDAVYEKIAQYLQLKNTIQSIQESGSKELKTDVDLGCNFYVQAHVPDASRIYVAVGYGFFVEFTHAEALKFIEKKTNQLTEYTEVLTKDAAKIKANIRMVLEGLRELQGLKDLPEDRRREVF”, the “soluble on expression in E. coli” value was “not soluble”.
For “MTSLPPRNRSASLFEGSPFAPSSTTSPPTSSLAKMLKSEPIPCLRCGNVGSPTGSVPMSLHKVSSINRSAGTNPASRGGESSLELEAIAAVHELSFAVQSISVSEMLPRTPDLIFVNVTTLEAQPYCLELTLKGWRITSLRSDCMVGDFTRLELFTKYYDSLYLLMDDISPGYRERFSEKLVQRLKLIEAGEEDQVAPCASLQSPSLSTDSSSKESQYSSTESLPIVTPVSTPAIDPDFKPKFK”, the “soluble on expression in E. coli” value was “not soluble”.
For “MTSLQLSIVHRLPQNYRWSAGFAGSKVEPIPQNGPCGDNSLVALKLLSPDGDNAWSVMYKLSQALSDIEVPCSVLECEGEPCLFVNRQDEFAATCRLKNFGVAIAEPFSNYNPFLEHHHHHH”, the “soluble on expression in E. coli” value was “not soluble”.
With “MTSLSQFEPLFLEFMQQEMQVDAAHDIEHVKRVVKTAKQLCDEENADIAIVLPAAYLHDCFTYPKDHPNRKQSSAIAAKKAIAYLESIQYPQHYHDAIAHAIEAHSFSANIRPNTLEAQIVQDADRLDALGAIGVTRCIQVSTHFNAQLYNDNDMFAKERELNDKQFTVDHFQTKLFKIADTMNTESAKLEANKRKAFMQTYLKQLHDEVTALEHHHHHH” the “soluble on expression in E. coli” value was “soluble”.
With “MTSNDADIKATVCVVTYNQVEYIEQCLQSLIDQITNFEFEIIVGDDFSTDGTRRIVEDFQRKYPHVIKPIFHSRNVGAAVNFNAVHGSARGKFVAHVDGDDYMLPNKLRSQVDFMERNPNCNISWHRMYVSYGSNIKEDLLDLNNFRQLCFTRADILKFITIGMNSSKMYRAETMNFQRPDFPMLDYFANVEQIGDGQACFISSEPLGVYRAGIGIAKNDFRVKEALNSSFLYFLSKYPKLSNEINQSVLLLLLMAFKNRRYTELSLFLKVYLKSFSFFTPWKLYKDYEFIKMLRLPKLEHHHHHH” the “soluble on expression in E. coli” value was “not soluble”.
With “MTSPSSASPDGHGARLDAQSIRFERLLPGPIERVWAWLADADKRARWLAGGELPRQPGQTFELHFNHAALTAETAPARYAQYDRPIVARHTLLRCEPPRVLALTWGGGAGEAPSEVLFELSEAGEQVRLVLTHTRLADRAAMLDVAGGWHAHLAVLAGKLAGQAPPPFWTTLAQAEQDYEQRLLEHHHHHH” the “soluble on expression in E. coli” value was “soluble”.
With “MTSPSSDEDIIDIRVIKEEPESEPDSEAEPATTTNSTDSEDSVEQENKKLLETEKNRKREQKHKMLPNGTTSGTSDTGNQVPATSSAASSVDYTAMNAQDYLPTYSNTTLNYQPYQYQTAANGLLNYNNYSQYATANQLGSNYISPANFMQGGGISPLGFTTGTTGATTAAASVATSSASAVIGRSNGRSSSTVAASPADRSYSGVSGGQGQELTIQEFETVTEKIRRHGTYGQSKPPYSYISLITMAIQKSNSRQLTLSEIYNWIMDLFPYYQNNQQRWQNSIRHSLSFNDCFVKVARSPDKPGKGSFWTLHEHCGNMFENGCYLRRQKRFKVKEREPSRKKRNANSQQLHQQQHIPKMEIKEEDPTSITTTSSLGAYSLIPQISTKKEIKEELKAVQDATAAAANLGLIDPSGTPSAVNHSQPTSVISSVGTLGTTQAQMTLNGQYASPYLYSSDFATILPQSQNFLNNTLYNTTSSYPGIDYTNGVYQNTLYSSTNPNSAANL” the “soluble on expression in E. coli” value was “not soluble”.
With “MTSRWGKYLLSGIMIAVLAGCQSRPTDRGQQYKDGRLEQSLELVNEPNAAGKPVNAKDYSDQVKVINQSSPGLYNRNSDTFNAVQNWMLAGADTSKLSLFGLNAYQMEGVDNFGNVQFTGYYTPVLQARYTPQGEFRHPLYRMPAKGKRRLPDRAAIYAGALDNRNLIIAYTNSLVDNFMMEVQGSGYVDYGDGRPLTFFGYAGKNGHAYRSIGKVLIDRGEVARADMSMQAIRQWAENHSEAEVRELLEQNPSFVFFKPVMYAPVKGASAVPLIAKASVASDKSLIPPGTTLLAEVPLLDDQGKFTGKYQMRLMVALDVGGAIKGQHFDIYQGIGHEAGQAAGFYNHYGRVWVLKNAQSSGPLFTAYKGGTQSEPTSNDSSLLVNNQDR” the “soluble on expression in E. coli” value was “not soluble”.
For “MTTANTPVRPKSAIDAVADAYTEKLIELNPSFATTLGLPGHETEYQDYSPAGAAAHAEATRLALEALAGLEPSDDVDAVTLDAMRERLGLELEIHQSGWDAADLNNIASPAQDIRAIFDLMPTDTVEHWEHIAGRAANVPGAIEGYIASLRAAKDDRKVAAARQIRIVIEQTGRYAAEDGFFAKMAADASLGDAPLPAEVQDKLDAGTSAARSAYSALGAFLRDELLPVAPEKDAVGRERYSLASRSFIGAEVDLEETYAWGVQELERLISEQEKVAGQIKPGASIEEAKSILNNDPARQIKGTDALKAWMQELSDRAVSELADVHFDIPDVMKTLECMIAPTDEGGIYYTGPSDDFSRPGRMWWSVPAGEDTFTTWSETTTVFHEGVPGHHLQVATATYRRELLNNWRRNVCWVSGHGEGWALYAEQLMLELGYLKDPGDHMGMLDGQRMRAARVVFDIGVHLELPVPERWGTGTWTPEKGFDFLKANLDISEGQLQFEFTRYLGWPGQAPSYKVGQRLWEQIRAELESREGFDLKSFHSKALNIGSVGLDVLRRALL”, the “soluble on expression in E. coli” value was “soluble”.
In the case of “MTTDSLSQIDTDQDEYGEEIEMASNSLGNLPDVVLQHLAPFLQWSTCRALSEVNLRFRSHFKQHLKEGQALSIKGQVSVGVGDRVNDCQNVSFLSEFYTIRVEMDDNMVVDWTLKLQSGVRTVVHRHYDGNTQTTTTKSVHLSSRDYLEKVLKWILARYQFKKIHLGVQGLAPLFSSYKGEIENVGISDEIEYLKLAEKFRPKHLTLFKPAQNTYNKGFFDLKKFPQLEELRMYGVPLDLDQLIESNISEVAADTIDKDIKLKHVRKIINNWKNGIINYKSIMISPSCSQFGIYCPHNQWSELTDHLVEANALYDNVVNIKEKIGSARYSPRSFEFEVWEADRY”, the “soluble on expression in E. coli” value was “not soluble”.
For “MTTFNYTNILTQAVDELSESQSYKGLFHQHKDGDPLPSAKSLYKIVELARAIIFPGYFGNSTVNSHTINYHIGVNVETLFGLLTEQILAGLCFGQENSKNATDDNEPCRETASLLAARFISKLPELRRILATDVEAAYYGDPAATCFGEIISCYPAIRAISNYRIAHELLILGVPLIPRFITEMAHSETGIDIHPGAQIGHHFTIDHGTGVVIGATSIIGNNVKLYQGVTLGAKSFPLDNNGNPIKGIPRHPILEDDVIVYSNATILGRVTIGKGATVGGNIWVTENVPAGSRIVQRKNKDELEHHHHHH”, the “soluble on expression in E. coli” value was “soluble”.
With “MTTHLPSTSQNGEEISAEQFNRIFHERNVIVLDCRSNGDSVKRANRFFCSLRLPALLQRRLMGGSMRLSTVPDLKDLNNSPDQCPEVLLIPGDSEQDEQLSAALARNLKSNHYRHFVLGEPVKTLLSQFPTLRDAADENWNTTFQMNSMPGQASGQQASSGPLLNLNQLRLEGEDQGGKQRAEFPVKLTNFLYLGNAETAKNRDVLKKYSISHVINVTSNLPNTFEEDPNMRYLRISADDNASHNLTKFFPEAISFIDDARRNDSACLVHCLAGISRSVTICLAYLMKTEMCTLDSAYEWVQKRNASIAPNFHFMGQLTDYEKMLGLNSNRVGVSRQAVNFDVHFFCIFKLKKKEENSPESRILAETAV” the “soluble on expression in E. coli” value was “not soluble”.
